These results are taken from patent publication US20220127365A1 (DREN BIO, published 2022).

Test [1] concerns the target T1, human CD94 (human, UniProt Q13241 1-179).
T1 sequence (looked up): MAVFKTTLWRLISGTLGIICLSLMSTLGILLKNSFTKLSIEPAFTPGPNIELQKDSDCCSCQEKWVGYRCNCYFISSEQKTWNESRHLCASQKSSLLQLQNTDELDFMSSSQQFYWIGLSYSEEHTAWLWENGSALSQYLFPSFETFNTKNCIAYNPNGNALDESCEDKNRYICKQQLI
Kind of test: cell-based or functional assay.

In test [2] the target is cynomolgus CD94 (cynomolgus monkey). The test can be described thus: cell-based or functional assay.
Test [3] concerns the target T2, cynomolgus CD94 (cynomolgus monkey).
T2 construct: whole, on cells; The construct expressed in HEK293 cells is not described further; also called cyno CD94; cynomolgus monkey CD94
The test can be described thus: flow cytometry titration of Alexa Fluor 647 conjugate (50 nM to 0.02 nM) on primary cynomolgus NK cells. The method, then: (§1) The ATX-130 antibody was produced in Expi-CHO cells cultured in the presence of kifunensine, a potent inhibitor of the mannosidase I enzyme, which is used to produce ATX-130-KIF mimicking non-fucosylated antibody. PBMCs of healthy donors were used for antibody staining ATX-130 antibody was titrated from 50 nM to 0.02 nM. Secondary anti-human antibody labeled with Alexa Fluor 647 was used to detect binding on CD3−CD56 bright NK cells. ATX-130-KIF antibody conjugated with Alexa Fluor 647 was titrated from 50 nM to 0.02 nM. T-LGLL cells were identified using CD3+CD16+ gating, while CLPD-NK cells were identified using CD3−CD16+ gating strategy. Titration curves and EC50 were generated using Graphpad Prism. […] Fluorescently labeled human IgG1-KIF isotype-KIF antibody was used as control. Arrows indicate ATX-130 and Human IgG1-KIF data points.
(§2) The affinity of the antibody clones was assessed by flow cytometry analysis. ATX-130-KIF mimicking non-fucosylated antibody was produced by culturing Expi-CHO cells cultured in the presence of kifunensine, a potent inhibitor of the mannosidase I enzyme. […] Thus, ATX-130 and ATX-130-KIF have similar binding affinity on primary human NK cells, cynomolgus NK cells, CLPD-NK cells, and T-LGLL cells.

For test [4], the target named is T1, human CD94. Kind of test: flow cytometry titration of Alexa Fluor 647 conjugate on T-LGLL patient cells (CD3+CD16+); T-LGLL cells. On the procedure: as §1, §2
Test [5] addresses T1, human CD94. Kind of test: flow cytometry titration of Alexa Fluor 647 conjugate on CLPD-NK patient cells (CD3-CD16+); CLPD-NK cells. The method, then:
as §1, §2

Test [6] deals with T1, human CD94. The test can be described thus: HLA-E tetramer blocking on healthy-donor PBMCs, flow cytometry; competitor HLA-E tetramer. On the procedure:
(§3) Healthy donor PBMCs were seeded in 96-well plates at a density of 100,000 cells per well, incubated with human Fc block (Biolegend) and cell viability dye (Thermo Fisher) for 30 minutes on ice and protected from light. The cells were washed once with FACS buffer (PBS with 2% IgG low FBS). anti-CD94 antibodies at EC80 concentrations were incubated with cells for 30 minutes on ice and protected from light. After incubation with the anti-CD94 antibodies, the cells were washed and incubated with HLA-E tetramer PE (Creative Biolabs), anti-CD3 pacific blue-labelled, and anti-CD56 FITC-labelled antibodies (Biolegend) for 30 minutes on ice and protected from light. The cells then received a final wash in FACS buffer before quantification on the Cytoflex (Beckman Coulter). All data acquisition and fluorescence compensation were performed using CytoFlex (Beckman Coulter, Atlanta, Ga.). Data analysis was performed using FlowJo software. NK cells were identified through gating on lymphocytes on the forward and side scatter, followed by doublet and dead cell exclusion, and gated on the CD3−CD56+ population. HLA-E expression was then quantified on the CD3−CD56+NK cell population. Percent blocking was calculated as 100−((percent HLA-E positive for anti-CD94 antibody)/(percent HLA-E positive for isotype)*100).
Healthy donor PBMCs were incubated with anti-CD94 antibodies. PE labeled HLA-E tetramer was then incubated with cells and antibody mixture and detected by flow cytometry.
Percent blocking was calculated as 100−((percent HLA-E positive for anti-CD94 antibody)/(percent HLA-E positive for isotype)*100). If an antibody blocked more than 20% of HLA-E binding, it was considered a ligand-blocking antibody.

For test [7], the target named is T3, CD94 homodimer on BaF3 cells (UniProt Q13241 1-179).
T3 construct: whole, on cells
T3 sequence (looked up): T1 sequence (looked up)
The test can be described thus: flow cytometry titration (50 nM to 0.02 nM) on BaF3 cells, anti-human AF647 secondary antibody; BaF3 cells overexpressing CD94 homodimer. On the procedure:
(§4) BaF3 cells overexpressing CD94 homodimer (top panel), CD94/NKG2A heterodimer (lower left panel), and CD94/NKG2C heterodimer (lower right panel) were incubated with unconjugated ATX-130 antibody in a dilution series from 50 nM to 0.02 nM. Secondary anti-human antibody labeled with Alexa Fluor 647 was used to detect ATX-130 binding on cells.
(§5) The affinity of the antibody clone ATX-130 on CD94 homodimer and heterodimer was also assessed by flow cytometry analysis.

In test [8] the target is T1, human CD94. The test can be described thus: flow cytometry titration (100 nM to 0.046 nM) on healthy-donor PBMCs, CD3-CD56bright NK cells; column 'Affinity on human NK cells (nM)'.
Test [9] has as its target T4, CD94/NKG2A heterodimer on BaF3 cells (UniProt Q13241 1-179; P26715 1-233, limits assumed).
T4 construct: whole, on cells
Kind of test: flow cytometry titration (50 nM to 0.02 nM) on BaF3 cells, anti-human AF647 secondary antibody; BaF3 cells overexpressing CD94/NKG2A heterodimer. On the procedure: as §4, §5

Test [10] addresses T5, CD94/NKG2C heterodimer on BaF3 cells (UniProt Q13241 1-179; P26717 1-231, limits assumed).
T5 construct: whole, on cells
Kind of test: flow cytometry titration (50 nM to 0.02 nM) on BaF3 cells, anti-human AF647 secondary antibody; BaF3 cells overexpressing CD94/NKG2C heterodimer. On the procedure: as §4, §5

Test [11] addresses T2, cynomolgus CD94. The test can be described thus: flow cytometry on HEK293 cells overexpressing cynomolgus CD94; unconjugated antibody in a dilution series, Alexa Fluor 647 anti-human secondary antibody. The method, then:
For human NK cell binding, PBMCs were freshly isolated from healthy donors and incubated with unconjugated antibodies in a dilution series from 100 nM to 0.046 nM. Secondary anti-human antibody labeled with Alexa Fluor 647 was used to detect binding on CD3−CD56bright NK cells. For cynomolgus CD94 binding, HEK293 cells overexpressing cynomolgus CD94 were incubated with unconjugated antibodies in a dilution series from 100 nM to 0.046 nM. Secondary anti-human antibody labeled with Alexa Fluor 647 was used to detect binding on the cells.

In test [12] the target is T1, human CD94. Kind of test: flow cytometry titration (100 nM to 0.046 nM) on healthy-donor PBMCs, gated NK cells; EC50 from GraphPad Prism. The method, then: Peripheral blood monocuclear cells (PBMCs) of healthy donor HD-40 were used for antibody staining. 18H3 antibody was titrated from 100 nM to 0.046 nM in 1:3 dilutions and incubated with PBMCs. CD3 and CD56 antibodies were used to identify NK cells on the flow scatter. 18H3 antibody binding on […] and CD56 bright NK cells was used to assess affinity of 18H3. Titration curves and EC50 were generated using Graphpad Prism. […] Human IgG1 isotype control with secondary antibody (hIgG1) and goat (Fab)2 fragment anti-human Fcy-specific secondary antibody AF647 only (2ndary Ab) were used as controls.
Healthy donor PBMCs were seeded in 96 well plates at a density of 100,000 cells per well, incubated with human Fc block (Biolegend) and cell viability dye (Thermo Fisher) for 30 minutes on ice and protected from light. […] After incubation, the cells received a final wash in FACS buffer before quantification on the Cytoflex (Beckman Coulter). All data acquisition and fluorescence compensation were performed using CytoFlex (Beckman Coulter, Atlanta, Ga.). […] CD94 expression was then quantified on the CD3−CD56+NK cell population. […]
The affinity of the antibody clones was also assessed by flow cytometry analysis.

For test [13], the target named is T1, human CD94. Kind of test: competition assay, flow cytometry on NK cells of healthy donor PBMCs; 18H3-AF647 titrated in the presence of 1E4 at 11 µg/ml. On the procedure:
(§6) FIGS. 5A-5B show the results of competition assays performed for 18H3 anti-CD94 antibody evaluation. For all competition assays, 18H3 was incubated with PBMCs at a concentration of 1.3 μg/ml. […] Commercially available anti-CD94 antibodies were titrated and incubated with PBMCs concurrently with 18H3. […] To test competition between 18H3 and 1M4/1E4, 1M4 and 1E4 were incubated with cells at concentrations of 8.5 μg/ml and 11 μg/ml, respectively. 18H3 was fluorescently tagged with AF647 and incubated with cells concurrently with […].
(§7) Healthy donor PBMCs were seeded in 96-well plates at a density of 100,000 cells per well, incubated with human Fc block (Biolegend) and cell viability dye (Thermo Fisher) for 30 minutes on ice and protected from light. The cells were washed once with FACS buffer (PBS with 2% IgG low FBS). Unconjugated anti-CD94 antibodies at EC80 concentrations, CD3 FITC and CD56 PE antibodies, and APC-labeled anti-CD94 antibodies were incubated with cells for 30 minutes on ice and protected from light. The cells then received a final wash in FACS buffer before quantification on the Cytoflex (Beckman Coulter). All data acquisition and fluorescence compensation were performed using CytoFlex (Beckman Coulter, Atlanta, Ga.). Data analysis was performed using FlowJo software. […] Anti-CD94 APC was then quantified on the CD3−CD56+NK cell population. […]

Test [14] deals with T1, human CD94. Kind of test: competition assay, flow cytometry on NK cells of healthy donor PBMCs; 18H3-AF647 titrated, concurrently Mouse IgG1 control (or 1M4 at 8.5 µg/ml). The method, then:
as §6, §7

In test [15] the target is T1, human CD94. The test can be described thus: table column 'HLA-E blocking'; flow cytometry on NK cells of healthy donor PBMCs, antibody at saturating concentration, blocked ligand PE labeled HLA-E tetramer; percent blocking = 100-((percent HLA-E positive with antibody)/(percent HLA-E positive with isotype)*100). On the procedure:
FIGS. 4A & 4B show the results of HLA-E tetramer blocking assays performed with anti-CD94 and commercially available anti-CD94 antibodies using flow cytometry. Healthy donor PBMCs were incubated with anti-CD94 antibodies. PE labeled HLA-E tetramer was then incubated with the cell and antibody mixture, and detected using flow cytometry. For HP-3B1, 131412, 12K45, DX22, 1M4 and 1E4, 2.5 μl of HLA-E tetramer reagent was used, while 5 μl was used for 18H3 and HP-3D9. Saturating concentrations of each antibody was used in this assay. The percent blocking was calculated as 100−((percent HLA-E positive for anti-CD94 antibody)/(percent HLA-E positive for isotype)*100).
as §3

T4 sequence (P26715 whole entry, one chain of several): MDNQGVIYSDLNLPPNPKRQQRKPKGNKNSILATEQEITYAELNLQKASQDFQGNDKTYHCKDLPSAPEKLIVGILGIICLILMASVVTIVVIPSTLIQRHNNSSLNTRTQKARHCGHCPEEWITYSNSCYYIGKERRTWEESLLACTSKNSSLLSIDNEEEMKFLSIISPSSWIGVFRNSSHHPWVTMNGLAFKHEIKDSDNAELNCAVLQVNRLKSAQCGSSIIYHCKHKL
T5 sequence (P26717 whole entry, one chain of several): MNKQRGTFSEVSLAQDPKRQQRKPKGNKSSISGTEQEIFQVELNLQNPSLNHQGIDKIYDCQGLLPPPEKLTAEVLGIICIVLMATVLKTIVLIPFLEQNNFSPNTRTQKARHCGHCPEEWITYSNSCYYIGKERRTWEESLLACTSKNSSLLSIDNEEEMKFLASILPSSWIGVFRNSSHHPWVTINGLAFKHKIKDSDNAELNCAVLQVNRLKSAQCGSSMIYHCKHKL

B1: ATX-130-KIF (antibody, human IgG1, V domains shown)
VH: EVQLLESGGGLVKPGGSLRLSCAASGFTFSSYSMNWVRQAPGKGLEWVSSISTSSNFIYYADSVKGRFTISRDNAKNSLYLQMNSLRAEDTAVYYCARDLGRYYYYMDVWGKGTTVTVSS
VL: DIVMTQSPSSLSASVGDRVTITCRASQSISSWLAWYQQKPGKAPKSLIYAASSLQSGVPSKFSGSGSGTDFTLTISSLQPEDVATYYCQKYNSAPFTFGPGTKVDIK
notes: also called KIF-treated ATX-130; ATX-130-KIF Alexa Fluor 647
As for B1, the “IC50 of CLPD-NK leukemic cell depletion, ADCC assay with patient PBMCs” value with human CD94 [1] came to 0.6 ng/mL. For the same molecule, in the test with human CD94 [1], the “IC50 of T-LGLL leukemic cell depletion, ADCC assay with patient PBMCs” value was 0.2 ng/mL. Moreover, in the test with human CD94 [1], the “IC50 of human NK cell depletion, ADCC assay with healthy donor PBMCs” value came out at 0.8 ng/mL. In addition, in the test with cynomolgus CD94 [2], the “IC50 of cynomolgus NK cell depletion, ADCC assay with cynomolgus PBMCs” value amounted to 0.3 ng/mL. Also, the 50% effective concentration (EC50) with cynomolgus CD94 [3] amounted to 1 nM; with human CD94 [4] it was 3 nM; with human CD94 [5], 1.4 nM.

B2: anti-CD94 antibody ATX-130 (antibody, human IgG1, V domains shown)
VH: B1 VH
VL: B1 VL
notes: also called hATX-130
In the case of B2, the “percent HLA-E blocking” value in the test with human CD94 [6] stood at 0%. The EC50 in test [7] was 0.3 nM; with human CD94 [8], 0.6 nM; in test [9] it was 0.8 nM; in test [10], 1.8 nM. In the test with cynomolgus CD94 [11], the concentration giving a half-maximal response (EC50 (read off the curve)) was around 0.7 nM.

B3: anti-CD94 antibody 18H3 (antibody, V domains shown)
VH: EVQLVQSGAEVKKPGESLKISCKGSGYRFTSYWIGWVRQMPGKGLEWMGIIYPGDSDTRYSPSFQGQVIISADKSITTAFLQWSSLKASDTAMYYCARPFDYGGSPGYFDYWGQGTLVTVSS
VL: DIQMTQSPSTLSASVGDRVTITCRASQSIRSWLAWYQQKPGKAPKLLIYKASSLESGVPSRFSGSGSGTEFTLTISSLQPDDFATYYCQQYNTFWTFGQGTKVEIK
notes: Human variable domains from ATX-Gx Alloy transgenic mice; Screened as hybridoma supernatant; also called human IgG1 18H3
B3 had a 50% effective concentration (EC50) with human CD94 [12] of 2.6 nM. Moreover, the figures for the “EC50 (read off the curve)” value with human CD94 [13] and with human CD94 [14] were around 3 nM and around 0.8 nM, respectively. Moreover, in the test with human CD94 [15], the HLA-E blocking is 0%.
